Source: the nanobody polyreactivity screen of Harvey et al. (2022)

Experiment: yeast display, Sf9 membrane polyspecificity reagent, FACS + sequencing; frameworks hold sequencing errors
In short: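 Galactose induction of a Saccharomyces cerevisiae BJ5465 synthetic nanobody display library ran 36–48 hours. The cells were then stained for 1 hour at 4 °C with 10% biotinylated, detergent-solubilized Sf9 membrane reagent, pulled down on streptavidin microbeads and FACS-sorted into low and high (top ~1%) gates on expression and reagent-binding fluorescence. Labels for polyreactivity follow the gate of origin.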

Row | Sequence | polyreactivity (PSR sort gate)
1 | QVQLVESGGGLVQAGGSLSLSCAASGRIIDWNTMGLYRQAPGKERDLDATISWDGGTKYYADSVKGRFTISRDTAKNTVFLQMNSLKPEDTAVYYCNKSPLNFFRFRATYDYWGQGTQVTVSS | low polyreactivity
2 | QVQLVESGGGLVQAGGSLSLSCAASGRIYNYAMGWYRQAPGKERELVAAITGRGGSTYYADSVKGRFTISRDNAKNTVYLQMNSLKPEDTAVYYCARAGGPRHDWGQGTQVTVSS | high polyreactivity
3 | QVQLVESGGGLVQAGGSLSLSCAASGRNFLRNAMGWYRKAPGKERELVAAIKSGGNTYYADSVKGRFTISRDNAKITVYLQMNSLKPEYTAVYYCADRQYGFASYRMDYWGHGTQVTVSS | high polyreactivity
4 | QVQLVESGGGLVQAGGSLSLSCAASGRTFLRYAMGWYRQAPGKERELVAAISWSGGRTYYADSVKGRFTISRDNAKNSVYLQMNSLKAEDTAVYYCNNVVLYGALYYYCGQGTQVTVSS | high polyreactivity
5 | QVQLVESGGGLVQAGGSLSLSCAASGRTFSYYAMGWYRQAPGKERELVAAISRSGSITYYADSVKGRFTISRDNAKNTIYLQMNSLKPEDTAVYYCNADSSRRRYSSDYWGQGTQVTVSS | high polyreactivity
6 | QVQLVESGGGLVQAGGSLSLSCAASGSIFDVNAMGWYRQAPGKERELVAAISDSGGSTYYADSVKGRFTISRDNAKNTVHLQMNSLKAEDTAVYYCNADWSWYNYYDFDYWGQGTQVTVSS | low polyreactivity
7 | QVQLVESGGGLVQAGGSLSLSCAASGSIFHPYTMGWYRQAPGKERELVAGISQSSDSTYYADSVKGRFTISRDNAKNTVYLQMNSLKPEDTAVYYCNRDNDWPLSVVEVDYWGQGTQVTVSS | low polyreactivity
8 | QVQLVESGGGLVQAGGSLSLSCAASGSIFLRNAMGWYRPAPGKERELVAAITRVGSTYADSVKGRFTISRDNAKNTVYLQMNSLKPEDTAVYYCAAVSGVRSGPWRYDYWGQGTQVTVSS | high polyreactivity
9 | QVQLVESGGGLVQAGGSLSLSCAASGSIFPRYTMGSYRQAPGKERELVAAISRSGGSTYYADSVKGRFTISRDNAKNTVYLQMNSLKPADTAVYYCDKSRPSKYDYWGQGTQVTVSS | high polyreactivity
10 | QVQLVESGGGLVQAGGSLSLSCAASGSIFQKYTMGWYRQAPRKERELVAAITRSGGSTYYADSVKGRFTISRDNAKNTVYLQMNSLKAEDSAVYYCNKRYIPWAYDYWGQGTQVTVSS | high polyreactivity
11 | QVQLVESGGGLVQAGGSLSLSCAASGSIFRINAMGWYRQATGKERELVARISWRAGNTYYADSVKGRFTISRDNAKNTVYLQMNSLKPEDTAVYYCNADYYVTGLYGPGYDYWGQGTKVTVSS | low polyreactivity
12 | QVQLVESGGGLVQAGGSLSLSCAASGSIFTHNAMGWYRQAPGKERELVAAISSGGSTNYADSVKGRFTISRDNAKNTVYLQMNSLKPEDTAVYYCAAGTQWYSQVYIYYYGGQGTQVTVSS | low polyreactivity
13 | QVQLVESGGGLVQAGGSLSLSCAASGSIFYVNTMGWYRQAHGKERELVADISSGDSTYYADSVKGRFTISRDNAKNTVYFQMNSLKPEDTAVYFCNADVYSWVSGKEGDYWGQGTQVTVSS | low polyreactivity
14 | QVQLVESGGGLVQAGGSLSLSCAASGSILFTNAMGWYRQAPGKERELVAAISSGGSTYYADSVKGRFTISRDNAKNTVYLQMNSLKPEDTAVYYCAASDHYRWYVHRWEDPFYYWGQGTQVTLSS | low polyreactivity
15 | QVQLVESGGGLVQAGGSLSLSCAASGSNFSENTMGWYRQAPGKKRELVADITSGGSTNYADSVKGRFTISRDNAKNTVYLQMNSLKPEDTAVYYCAADYHGEYDYWGQGTLVTVSS | low polyreactivity
16 | QVQLVESGGGLVQAGGSLSLSCAASGSTFAYYAMGWYRQAPGKERELVAGITWTGGSTYYADSVKGRFTISRDNAKNTVYIQMNSLKPEDTAVYYCAVTYPISEFYWGVKDRYDYWGQCTQVTVSS | low polyreactivity
17 | QVQLVESGGGLVQAGGSLSLSCAASGSTFGSNAMGWYRQAPAKERELVAAISWSGGRTYYADSVKGRFTISRDNAKNTVYLQMNRLIPEDTAVYYCYARQFRTMGYWGQGTQVNVSS | high polyreactivity
18 | QVQLVESGGGLVQAGGSLSLSCAASGSTFSPYAMGWYRQAPGKERELVAAITGSTGSTYYADSVKGRFTISRDNAKNTVYLQMNCLKPEDTAVYYCAAVSSNAGHVSRRRGYYWGQGTQVTVSS | high polyreactivity
19 | QVQLVESGGGLVQAGGSLSLSCAASGSTFVINAMGWYRPAPRKERELLAAIRGRCVSTSYADSVKGRFTISRDIAKNTVYLQMNSLKPEDTEVYYCAADSRTGYYYWGQGTQVTVSS | high polyreactivity
20 | QVQLVESGGGLVQAGGSLSLSCAASGSTFYGYAMGWYRQAPGKERELVAAITRSGGSTYYADSVKGRFTISRDNAKNTVYLQMNSLTPEDTAVYYCAAERLYYYVYWGQGTQVTVSS | low polyreactivity
21 | QVQLVESGGGLVQAGGSLSLSCAASGSTIGPNAMGWYRQAPGKERDLVAAINTRGGSTYYADSVKGRFTISRDHANNTVYLQMNSLKPEDTAVYYCAAEYVVWYLDRFNYWGQGTQVTVSS | high polyreactivity

Row | Sequence | polyreactivity (PSR sort gate)
22 | QVQLVESGGGLVQAGGSLSLSCAASGTFYGNTMGWYRQAPGKERELVAVISIDGSTNYADSVKGRFTISRDNAKNTVYLQMNCLKPEDTAVYYCNARNQWRTVGKYDYWGQGTQVSVSS | low polyreactivity
23 | QVQLVESGGGLVQAGGSLSLSCAATAFTFTYYAMGWYRQAPGKERELVAAITYSGGTTYYADSVKGRFTISRDNAKNTVYLQMNSLKPEDTAVYYCAAVPYYVLARSFYRYGYWGQGTQVTVSS | low polyreactivity
24 | QVQLVESGGGLVQAGGSLSLSCAATGNTFYINNMGWYRQAPGKEREFVAAITWSGGPTYYADSVKGRFTISRDNAKNTVYLQMNSLKPEDTAVYYCAARRSGRWTGWTFYYWGQGTQVTVSS | high polyreactivity
25 | QVQLVESGGGLVQAGGSLSLSCAATGSIFLHNAMGWYRQAPGKERELVAVITSRGGSTYYADSVKGRFTISRDNAKNTVYLQMNSLKPEDTAVYYCAAPAYHKRTSRGDYWGQGTQVTVSS | low polyreactivity
26 | QVQLVESGGGLVQAGGSLSLSCADSGSTIYRYAMGWNRQAPGKEREFVATISRSGGGTYYADSEKGRLTISRDNAMNTVYLQMISLKPEDTSVYYCAARDVVQAGYYVKKYDYWGQGTQVTVSS | high polyreactivity
27 | QVQLVESGGGLVQAGGSLSLSCASTGFIITQNAMGWYRQAHGKERYLVAAISWRAGSTYYADSVKGRFTISRDNAKNTVYLQMNSLKPEDTAVYYCATRQTKYSNYRGDYWGQGTQVTVSS | high polyreactivity
28 | QVQLVESGGGLVQAGGSLSLSCDASGRIIHSYAMGWYRQEPGKERELVAAISWSGTSTYYADSVKGRFTISRDNAKNTVYLQMNSLKPEDTEVYYCAARGRYVFDGYRMYFWGQGSQVTVSS | high polyreactivity
29 | QVQLVESGGGLVQAGGSLSLSCDASGSTFYYNAMGWYRQAPGKERELVAAITFTGGSTYADSVKGRFTISRDNAKNTVYLQMNSLKPEDTAVYYCSATIQGHDYLGTGYDYWGQGTQVTVSS | low polyreactivity
30 | QVQLVESGGGLVQAGGSLSLSCSASGSIFAGYARGWYRQAPGKERELVAAISVSGGGTYYADSVKGRFTISRDNAKNTVYLQMNSLKPEDTAVYYCAATGSSRYGRNYYSWGQGTQVTVSS | high polyreactivity
31 | QVQLVESGGGLVQAGGSLSLSSAASGRTFSGYAMGWYRQAPGKERELVAAIDRGDGTNYADSVKGRFTISRDNAKNTVYLQMNSLKPEDTAVYYCAADYSYGSTSHTYTGFDYWGQGTQVTVSS | low polyreactivity
32 | QVQLVESGGGLVQAGGSLSLTCAASGRILYRYAMGWYRPAPGKERDLVAAISWSGGSTYYADSVKGRFTISRDNAKNTVYLQLYSLKPEDTAVYYCNAVRASRSGGFDYWGQGTQVTVSS | high polyreactivity
33 | QVQLVESGGGLVQAGGSLSLTWAASGRTFLEYTMGWYRQAPGKERELVAAISSTGGSTNYADSVKGRFTISRDNAKNSVYLQMNSVKPEDTAVYYCAARLRRRSATSTRMGYWGLGTQVTVSS | high polyreactivity
34 | QVQLVESGGGLVQAGGSPRLSCAASGRIFGVNAMGWYRQAPGKERELVAAISVSGDSTYYADSVKGRFTISRDNAKNTVYLQMNSLKPEDTAVYYCYAGYTFVPADLTDEYYWGQGTQVTVSS | low polyreactivity
35 | QVQLVESGGGLVQAGGSPRLSCAASGRTFRSNAMGWYRQAPGKERELVAAISWSGGSTYYADSVKGRFTISRDNAKNTVYLQLNSLKPEDTAVYYCAAGSYWSPYGQSFWPKYDYWGQGSQVTVSS | high polyreactivity
36 | QVQLVESGGGLVQAGGSRRISWAASGSTFPWNVMGWYRQAPGKERELVAAISSSDGRTYYADSVKGRFTISRDNAKNTVYLQMNSLNPDDTAVDYCAASVAYYWYRTWLFDYDYWGQGTEVTVSS | high polyreactivity
37 | QVQLVESGGGLVQAGGSRRLSCAASGLTFANYVMGWYIQAPGKERELVAAISRSGGSTYYADSVKGRFTISRDNAKNTVYLQMNSLNPEDTAVYYCAAAALDPKGSRYDYWGQGTQVTVSS | low polyreactivity
38 | QVQLVESGGGLVQAGGSRRLSCAASGLTVHDNGMGWYRQAPGQEREVVAAISWSDGTTYYADSVKGRVSISRDNAKNTVYLQMNSLKPEDTAVFYCAAEAYYFWDLVDEDYWGQGTQVTVSS | high polyreactivity
39 | QVQLVESGGGLVQAGGSRRLSCAASGNTFTWYTMGWYRQAPAKERELVAVITSDGSTYYADSVKGRFTISRDNAKNTVYLQMNSLKPEDTAVYYCNALSADWYPEEDYWGQGTQVTVSS | low polyreactivity
40 | QVQLVESGGGLVQAGGSRRLSCAASGRIFGVYAMGWYRQAPGKERELVAAIDRRGGRTYYADSVKGRFTISRDNAKNTVYLQMNSLKPEDTAVYYFATARYRADMGYWGQGTQVTVSS | high polyreactivity
41 | QVQLVESGGGLVQAGGSRRLSCAASGRTFYKYAMGWYRQAPGKERELVAAISGGGTTNYADSVKGRFTISRDNAKNTVYLQMNSLKPEDTAVYYCNAARTRWATGYDYWGQGTQVTVSS | low polyreactivity
